# Results published in article PMC10998612 (Proceedings of the National Academy of Sciences of the …, 2024).
# B1: PPP1R15A^420-452 (R3) peptide (peptide)
# peptide: not shown
# notes: residue numbers based on UniProt O75807; Only residues 426-434 were built in the structure
# Target: T1, eIF2γ (γ subunit of eIF2, as in the eIF2αγ dimer) (human, UniProt P41091 1-472)
# T1 construct: eIF2 gamma subunit (eIF2γ); The γ chain of m6, written alone for the pairs that touch in the crystal structure; also called human eIF2γ; source: E. coli, co-expressed with eIF2α and CDC123 from a multicistronic plasmid, purified as eIF2αγ
# Assay: crystal structure; 7.5 mg/mL eIF2αγ combined with PPP1R15A_R3^420-452 at a molar ratio of 1:8 with 0.5 mM GMPPNP and 5 mM MgCl2; sitting drop, 20 °C; 11 to 12% PEG 6000, 0.1 M Tris-HCl pH 8.5; 3.35 Å
# Details: both partners purified
# T1 sequence (P41091 whole entry): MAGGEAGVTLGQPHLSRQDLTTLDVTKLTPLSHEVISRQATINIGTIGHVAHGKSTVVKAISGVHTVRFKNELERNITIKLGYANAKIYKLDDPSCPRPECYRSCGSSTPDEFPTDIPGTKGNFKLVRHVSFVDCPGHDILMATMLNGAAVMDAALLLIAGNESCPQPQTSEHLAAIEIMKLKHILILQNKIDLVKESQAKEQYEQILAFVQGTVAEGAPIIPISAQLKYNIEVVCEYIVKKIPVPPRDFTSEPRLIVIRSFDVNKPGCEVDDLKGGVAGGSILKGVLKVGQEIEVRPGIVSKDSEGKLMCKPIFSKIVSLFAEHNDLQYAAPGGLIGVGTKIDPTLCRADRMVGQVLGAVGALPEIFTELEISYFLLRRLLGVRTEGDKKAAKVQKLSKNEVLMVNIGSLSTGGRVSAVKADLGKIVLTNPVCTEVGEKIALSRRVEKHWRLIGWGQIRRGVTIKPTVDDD
binder,measurement,value
B1,binding result,binds
